This data set in a line: yeast display, Sf9 membrane polyspecificity reagent, FACS + sequencing; frameworks hold sequencing errors. The gist of the method: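 After 36–48 hours of galactose induction, yeast (Saccharomyces cerevisiae BJ5465) displaying a synthetic nanobody library were stained at 4 °C for 1 hour with 10% biotinylated, detergent-solubilized Sf9 membrane reagent. Streptavidin microbeads enriched the stained cells before FACS sorting into low and high (top ~1%) gates on anti-HA and streptavidin fluorescence. Each clone's polyreactivity label reflects its gate of origin.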
On to “QVQLVESGGGLVQAGGSLRLSCAASGITFYGYAMGWYRPAPGKERELVAVITSTARTNYADSVNGRFTISRDNAKNTVYLQMNSLKPEDTAVYYCAAVHSSYSFNYWGQGTQVTVSS”, for which the “polyreactivity (PSR sort gate)” value is reported as “high polyreactivity”.

For the sequence “QVQLVESGGGLVQAGGSLRLSCAASGITFYGYAMGWYRQAPGKERELVARISSGGTTKYADSVKGRFTISRDNAKNTVYLQMNSLKPEDTAGYYCAVGGSWWYYGFYYWGQGTQVSVSS”, the “polyreactivity (PSR sort gate)” value is “high polyreactivity”. In the case of “QVQLVESGGGLVQAGGSLRLSCAASGITFYIYAMGWYRQAPGKERELVAAITWGGDGSTRYADSVKGRFTISRDNAKNTVYLQMNSLKPEDTAVYYCAGGSTFVLFDDMDYWGQGTQVTVSS” it was “low polyreactivity”; in that of “QVQLVESGGGLVQAGGSLRLSCAASGITFYIYAMGWYRQAPGKERELVATISWSDGRTYYADSVKGRITISRDNAKNTVYLQMNSLKPEDTAVYYCAADWWYYQFDYEYWGQGTQVTVSS”, “low polyreactivity”; in that of “QVQLVESGGGLVQAGGSLRLSCAASGITFYLNAMGWYRQAPGKERELVADITVSGGSTYYADSVKGRFTISRDTAKNTVYLQMNSLIPEDTAVYYCAADLTISYSQEYYYWGQGTQVTVSS”, “low polyreactivity”. “QVQLVESGGGLVQAGGSLRLSCAASGITFYLYAMGWYRQAPGKERELVAAISRIGGSTYYADSVKGRFTISRDNAKNTVYLQMNSLKPEDTAVYYCATYYGGSGYDYWGQGTQVTVSS”: the “polyreactivity (PSR sort gate)” value is on record as “high polyreactivity”. As to “QVQLVESGGGLVQAGGSLRLSCAASGITFYLYDMGWYRQAPGIERELVASITSDGSTDYADSVKGRFTISRDNAKNTVYLQMNSLKPEDTAVYYCNARVTYSWYRFGRSGDDSWGHGTQVTVSS”, the “polyreactivity (PSR sort gate)” value was “low polyreactivity”. In the case of “QVQLVESGGGLVQAGGSLRLSCAASGITFYNSAMGLYRQAPGKERELVAAISSSGGSTYYADSVKGRFTISRDNAKNTVYLQMNSLKPEDTAVYYCAAVIVLSSEDTYYYWGQGTQVTVSS” it was “high polyreactivity”; in that of “QVQLVESGGGLVQAGGSLRLSCAASGITFYPNGMGWYRQAPGKEREFVAAITSSGGSTYYADSVKGRFRISRDNAKNTLYLQMNSLKPEDTAVYYCAAQYYPISYYGYGYWGQGTQVTVSS”, “low polyreactivity”. To “QVQLVESGGGLVQAGGSLRLSCAASGITFYQYALGWYRQAPGKERELVARISYSGGSTYADSVKGRFTISRDNAKNTVYLQMNSLKPEDTAVYYCATAYRFRYGFANRYDYWGQGTQVTVSS” belongs “low polyreactivity”; to “QVQLVESGGGLVQAGGSLRLSCAASGITFYRYAMGWYRPAPGKERELVAAISSSGGSTYYADSVKGRFTISRDNAKNSVYLQMNRLKPEDTAVYYCNAVVQNPQEYDYWGQGTQVTVSS”, “high polyreactivity”. To “QVQLVESGGGLVQAGGSLRLSCAASGITFYRYAMGWYRQAPGKERELVAAISKRGGTTYYADSVKGRFTISRDNAKNTVYLQMNSLKPEDTAVYYCNKAKTAYRGQYDYWGQGTQVTVSS” belongs “high polyreactivity”; to “QVQLVESGGGLVQAGGSLRLSCAASGITFYRYAMGWYRQAPGKERELVAAITSGGGRTYYADSVKGRFTISRDNAKNTVYLQMNSLKPEDTAVYYCNAADYTAYGQGEYWGQGTQVTVSS”, “high polyreactivity”; to “QVQLVESGGGLVQAGGSLRLSCAASGITFYRYAVGWYRQAPGKERELVAAISCRGGRTYYADSVKGRFTISRDNAKKTVYLQMISLKPEDTAVDYCAAVASRIRGWLDITAYDYWGQGTQVTVSS”, “high polyreactivity”. Take “QVQLVESGGGLVQAGGSLRLSCAASGITFYRYMGWYRQAPGKERELVASITGRGGSTYYADSVKGRFTISRDNAKNTVYLQMNSLKPEDTAVYYCAAVFPTKSSTWYDYWGQGSQVTVSS”: the “polyreactivity (PSR sort gate)” value is on record as “high polyreactivity”.

For “QVQLVESGGGLVQAGGSLRLSCAASGITFYRYVMGWYRQAPGKERELVAAISDSTGSTYYADSVKGRFTISRDNAKNTVYLQMNSLKPEDTAVYYCAAGWFYATYWRFYYWGQGTQVTVSS”, the “polyreactivity (PSR sort gate)” value is given as “low polyreactivity”. In the case of “QVQLVESGGGLVQAGGSLRLSCAASGITFYTYAMGWYRQAPGKERELDAAITCSGGRTYYADSVKGRFTISRDNAKNSVYLQMNSLKPEDTAVYYCAALYVYRPRTPYGYWGQGTQVNVSS” it was “high polyreactivity”.

As to “QVQLVESGGGLVQAGGSLRLSCAASGITFYVYAMGWYRQAPGKERELVAAISRRGGSTSYADSVKGRFTISRDNAKNTVYLQMNSLKPEDTAVYYCAAGPFYGGIVRRYDYWGQGTQVTVSS”, the “polyreactivity (PSR sort gate)” value is reported as “low polyreactivity”. To “QVQLVESGGGLVQAGGSLRLSCAASGITFYYNAMGWYRQAPGKERELVAAIRSAGSTYYADSVKGRFTISRDNAKNTVYLQMNSLKPEDTAVYYCAAEDGNTDQVRVYWIMDYWGQGTQVTVSS” belongs “low polyreactivity”; to “QVQLVESGGGLVQAGGSLRLSCAASGITFYYTMGWYRQAPGKERELVATISYDGTSTYYADSVKGRFTISRHNEKNTVYLHMNSLKPEDTAVYYSSAYGTVVTLNDYWGQGTQVTVSS”, “low polyreactivity”; to “QVQLVESGGGLVQAGGSLRLSCAASGITFYYYAKGWYRQAPGKEREFVAAINWSGTSTYYADSVKGRFTISRDNAKNTVYLQMNSLKPEDTAVYYCNAERGRSFWWAYDYWGQGTQVTVSS”, “low polyreactivity”. In the case of “QVQLVESGGGLVQAGGSLRLSCAASGITFYYYAMGWYRQAPGKERELVAAINSGGITNYADSVKGRFTISRDNAKNTVYLQMNSLKPEDTAVYYCAASSGFRYRYGYWGQGTQVTVSS” it was “high polyreactivity”; in that of “QVQLVESGGGLVQAGGSLRLSCAASGITFYYYAMGWYRQAPGKERELVAAISFRGGSTYYADSVKGRFTISRDNAKNTVYLQMNSLIPEDTAVYYCAAETSPSWYTWVTYDYWGQGTQVTVSS”, “high polyreactivity”. In the case of “QVQLVESGGGLVQAGGSLRLSCAASGITFYYYAMGWYRQAPGKERELVAAISFRGGSTYYADSVKGRFTISRDNAKNTVYLQMNSLKPEDTAVYYCAKAWSYTDPPRGDYWGQGTQVTVSS” it was “high polyreactivity”; in that of “QVQLVESGGGLVQAGGSLRLSCAASGITFYYYAMGWYRQAPGKERELVAAITVNGGTTYYADSVKGRFTISRDNAKNTVYLQMNSLKPEDTAVYYCNADGTFEYDYWGQGTQVTVSS”, “low polyreactivity”. Turning to “QVQLVESGGGLVQAGGSLRLSCAASGITFYYYAMRWYRQAPGKERELVAAISRGGSTYYADSVKGRFTISCDNAKNTVYLQMNSLKPEDTAVYYCNAYTTGYLFGYWGQGTQVTVSS”, the “polyreactivity (PSR sort gate)” value is given as “high polyreactivity”. In the case of “QVQLVESGGGLVQAGGSLRLSCAASGITFYYYGMGWYRQAPGKERELVAAITTGGNTNYADSVKGRFTISRDNAKNTVYLQMNSLKPEDTAVYYCAAEYRIPYFFTYGYWGQGTQVTVSS” it was “high polyreactivity”; in that of “QVQLVESGGGLVQAGGSLRLSCAASGITIDYYAMGWYRQAPGKERELVAAISSVGNTNYADSVKGRFTISRDNAKNTVYLQMNSLKPEDTAVYYCAARAYGQRLYRVWSGYGYWGQGTQVTVSS”, “high polyreactivity”.

As for “QVQLVESGGGLVQAGGSLRLSCAASGITIIHNAMGWYRQAPGKERELVAAITTSDGSTYYADSVKGRFTISRDNAKNTVYLQMNSLKPEDTAVYYCAARGRHSGYYSFPYYYWGQGTQVTVSS”, the “polyreactivity (PSR sort gate)” value is given as “low polyreactivity”. To “QVQLVESGGGLVQAGGSLRLSCAASGITIVLYAMGWYRQAPGKERELVAAINIDGNTNYADSVKGRFTISRDNAKNTVYLQMNSLKPEDTAVYYCATYYYYPSWYLLYGEYNYWGQGTQVTVSS” belongs “low polyreactivity”.

The values above are taken from the nanobody polyreactivity screen of Harvey et al. (2022).
